Measurements from patent publication US11707511B2, “Vaccine compositions and methods of using the same” (The Board of Supervisors of Louisiana State University and …, priority 2017, dated 2023).

Tested on: C. albicans 3153A
Assay: Passive transfer of mAbs or mAb cocktails i.p. before lethal i.v. challenge, mouse model of human disseminated candidiasis
Format: in vivo, Candida albicans
Settings: for Protection against C. albicans / Protection against C. albicans (grade word): Table 6, single mAb 0.5 ml i.p. 4 h before i.v. 5×10^5 C. albicans 3153A, BALB/c mice; for Protection against Candida spp in mouse model: Against C. albicans / Protection against Candida spp in mouse model: Against C. albicans (grade word): Table 9; for Protection of adsorbed mAb / Protection / Protection (grade word): Table 15; for Protection of adsorbed mAb: mAb removed by absorption with Candida cells before transfer; for Protection / Protection (grade word): single universal peptide-specific mAb, C. albicans
Description: Passive transfer of MAbs by intraperitoneal (i.p.) route. The preventive effect of peptide-specific mAbs listed in Table 3 and Table 4 in naïve mice was examined by passive transfer experiments. […] For testing, mice received 0.5 ml of each mAb or 1 ml of two mAbs in combination (0.5 ml of each) intraperitoneally. […] The negative control materials tested in mice were single mAb or DPBS. Control mice received 0.5 ml of the DPBS diluents or single mAb treatment. For each condition, 6- to 8-week-old female BALB/c mice (NCI) were given 0.5 ml of test mAb, or 1 ml two mAb cocktails or control materials intraperitoneally, followed 4 h later by 0.1 ml intravenously of defined lethal dose of yeast cells per milliliter of DPBS. Mice were divided into groups with five mice each and three independent experiments were carried out. In some experiments, mice were given the same dose of mAbs or control materials on every other day post-challenge for two weeks, as compared to the protective efficacy of mAb in combinations. All mice were sacrificed on day 50. For animal groups that were challenged non-albicans candida species, determined optimal challenge doses were applied for each candida strain.
The hybridoma clones that produce the universal peptide specific mAbs listed above were generated from mice vaccinated with peptide-pulsed dendritic cell (DC) preparation as described previously (6). The isotype of mAb was determined with a Mouse Monoclonal Antibody Isotyping Kit (Pierce, USA). […] In detail, BALB/c mice were given an i.p dose of each mAb four hours before hematogenous challenged with a lethal dose of C. albicans3153A cells. […] Importantly, passive protection was prevented by removal of the mAbs by absorption with Candida cells before transfer, which provided strong additional evidence for the protection being due to the mAb.
The three cell wall proteins were selected because of expression during human candidiasis and cell wall association, and included fructose-bisphosphate aldolase (Fba); methyltetrahydropteroyltriglutamate-homocysteine methyltransferase (Met6); hyphal wall protein-1 (Hwp1). The hybridoma clones listed at Table 5, which produce the peptide specific mAbs, were generated from mice vaccinated with peptide-pulsed dendritic cell (DC) preparation as described previously (6). The isotype of mAb was determined with a Mouse Monoclonal Antibody Isotyping Kit (Pierce, USA). […] Importantly, passive protection was prevented by removal of the mAbs by absorption with Candida cells before transfer, which provided strong additional evidence for the protection being due to the mAb).
The preventive effect of each universal peptide-specific mAb was examined by passive transfer experiments. […] For testing, 5 mice of each tested group received 0.5 ml of each mAb intraperitoneally. The negative control materials tested in mice were mAbs absorbed with C. albicans yeast cells (3153A) and DPBS. Control mice received 0.5 ml of the DPBS diluents or adsorbed mAb solution. For each condition, 6- to 8-week-old female BALB/c mice (NCI) were given 0.5 ml of test mAb, or control materials intraperitoneally, followed 4 h later by 0.1 ml intravenously of a suspension containing lethal dose of Candida cells per milliliter of DPBS. Mice were divided into groups with five mice each and three independent experiments were carried out. We have developed neutropenic murine models of disseminated infection by C. glabrata, C. tropicalis and C. parapsilosis. To induce neutropenia, naïve mice received a 200 mg/kg dose of cyclophosphamide (CY) by i.p. on day −3. Prolonged neutropenia were maintained for 30-50 days by giving each animal a 150 mg/kg dose of CY by i.p. every 10 days after infection.

Molecule	Protection against C. albicans	Protection against C. albicans (grade word)	Protection against Candida spp in mouse model: Against C. albicans	Protection against Candida spp in mouse model: Against C. albicans (grade word)	Protection of adsorbed mAb	Protection	Protection (grade word)
1D4H5: IgG1 mAb of hybridoma 1D4H5, specific for GPV-M1; VH SEQ ID NO: 64, VL SEQ ID NO: 66 (antibody, V domains shown) VH: MYLGLNCVFIVFLLKGVQSEVKLEESGGGLVQPGGSMKLSCVASGFTFSNYWMNWVRQSPEKGLEWVAEIRLKSNNYATHYAESVKGRFTISSDDSKSSVYLQMNNLRAEDTGIYYCSTGNYWGQGTTLTVSS VL: MDFQMQIISLLLISVTVIVSNGEIVLTQSPTTMAASPGEKITITCSASSTISSNYLHWYQQKPGFSPKLLIYRTSNLASGVPARFSGSGSGTSYSLTIGTMEAEDVATYYCQQGSTISRTFGSGTKLEIK	(70-80%)	High	(70-80%)	High	None	(70-80%)	High
10E7E2: IgG1 mAb of hybridoma 10E7E2, specific for GPV-P3; VH SEQ ID NO: 72, VL SEQ ID NO: 74 (antibody, V domains shown) VH: QVQLKQSGPGLVQPSQSLSITCTVSGFSLTSYGVHWVRQSPGKGLEWLGVIWSGGTTDYNAAFISRLSISKDNSKSQVFFKMNSLQANDTAIYYCARGGHRGFAYWGQGTLVTVSA VL: DIVMTQSHKFMSTSVGDRVSITCKASQDVGTAVAWYQQKPGQSPKLLIYWASTRHTGVPDRFTGSGSGTDFTLTISNVQSEDLADYFCQQYSSYPLTFGAGTKLELK	(80-100%)	High	(80-100%	High	None	(80-100%)	High
